The record followed here is patent publication US20180017550A1.

The assay deals with human APC mutation cluster region fragment (codons 1,294-1,369) with N-terminal VSV tag, 4 glycine s (human) (UniProt P25054).
Sequence of human APC mutation cluster region fragment (codons 1,294-1,369) with N-terminal VSV tag, 4 glycine s (human) (P25054 other isoform, or with tags, fused parts or gaps limits assumed): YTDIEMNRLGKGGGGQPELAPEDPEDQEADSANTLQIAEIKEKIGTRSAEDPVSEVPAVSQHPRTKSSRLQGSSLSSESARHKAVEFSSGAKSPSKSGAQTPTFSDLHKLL

“anti-VSV antibody conjugated to the Cy3 fluorophore (clone P5D4; Sigma-Aldrich, St. Louis, Mo.)”: the signal to noise ratio is 179 :1.
